Results published in the supplement of paper PMC12764529.
± gives the half width of the 95% confidence interval.

Legend:
[1] = folding stability dG unfold from trypsin proteolysis; higher = more stable
Procedure, shortened: (§1)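 Digests were run with trypsin and chymotrypsin at 11 concentrations in threefold dilutions, plus a no-protease condition, on designed mini-proteins in a PA-tagged cDNA display construct. The mini-proteins were under 80 residues, had no cysteine, and were kept only when AlphaFold2 dimer inter-PAE was above 15. After sequencing, Bayesian fitting of the counts gave K50, from which unfolding free energy was derived against a sequence-predicted unfolded-state K50 and a shared folded-state K50, per protease or combined.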

[2] = folding stability dG unfold from chymotrypsin proteolysis; higher = more stable
Procedure, shortened: as §1

[3] = folding stability dG unfold (combined trypsin and chymotrypsin); higher = more stable
Procedure, shortened: as §1

Sequence	folding stability dG unfold [1] [kcal/mol]	folding stability dG unfold [2] [kcal/mol]	folding stability dG unfold [3] [kcal/mol]
SAGGSAGGSAGGKPKKILNIELVLKGKDGKKYKLKIEIYNYPDKPKIYITFPDGTTIEASAGGSAGGSAGGS [r10_404_TrMRF]	3.54 ± 0.13	5.28 ± 0.19	5.15 ± 0.21
SAGGSAGGSAGGKPKLIVRVKIKNENGEEIEIEIEVETLDEAKEAAKKLGFEIVEVEVLSAGGSAGGSAGGS [r10_882_TrROS_Hall]	3.94 ± 0.23	2.54 ± 0.081	3.28 ± 0.19
SAGGSAGGSAGGKPVIYRIEVRLPDSPEREIFEIEVPPDRPEVAEELAKLLGPNVKMEPLSAGGSAGGSAGG [r11_250_TrMRF]	-0.166 ± 0.1	-0.577 ± 0.49	-0.387 ± 0.38
SAGGSAGGSAGGKSYTDPNSNTVTTLDEGPGFGKVTTTTYKPEEPVPLETTESIIGPVLSSAGGSAGGSAGG [r7_343_JUSTAS]	0.367 ± 0.04	-0.026 ± 0.11	0.273 ± 0.24
SAGGSAGGSAGGKTITLPPGMSEEELLEALKKAKPGDTITIEVDGKTYTLKVENGKITLTSAGGSAGGSAGG [r7_560_TrROS_Hall]	2.31 ± 0.14	3.92 ± 0.12	3.56 ± 0.12
SAGGSAGGSAGGKTIVVELEDGSKATITVDEDGNVTVEVYDEKTGEKKTFTIPAEALKPSAGGSAGGSAGGS [r10_838_TrROS_Hall]	2.53 ± 0.16	2.95 ± 0.066	2.73 ± 0.16
SAGGSAGGSAGGKTLRIKVEETEYVVLFPNTGRLLVIPPGYEAEIELDDAPDVLILGRPPSAGGSAGGSAGG [r11_939_TrMRF]	0.123 ± 0.18	1.79 ± 0.16	1.34 ± 0.13
SAGGSAGGSAGGKTLTLVFKTKEEAEEAAKKLGFKKVEVKEFKNEDGEKYLVVKIELKPSAGGSAGGSAGGS [r10_494_TrROS_Hall]	2.43 ± 0.058	3.1 ± 0.047	2.94 ± 0.22
SAGGSAGGSAGGKTVLISLEDLEALKKLPPGAKVKIEPIKTPEGTVYRVNVETGKIEKVPSAGGSAGGSAGG [r7_765_TrROS_Hall]	-0.24 ± 0.21	0.175 ± 0.26	0.0992 ± 0.22
SAGGSAGGSAGGKTVWIPWDDLEELKDLPPGKKRTIHLWNPKNGRWYRITVTDNNIEIERSAGGSAGGSAGG [r7_765_TrROS]	2.36 ± 0.061	3.088 ± 0.013	2.86 ± 0.078
SAGGSAGGSAGGKTYTAEELRSLPPGAKITLADGKVIEVSIEQLEKEIKPGDTVRIERVPSAGGSAGGSAGG [r7_643_TrROS_Hall]	0.542 ± 0.043	-0.404 ± 0.17	0.172 ± 0.09
SAGGSAGGSAGGKTYTLTFKAKIEVSEDDVVVITPPNGKKLVVPKENVKVHPDGTVTVTGSAGGSAGGSAGG [r7_684_TrMRF]	1.28 ± 0.097	1.27 ± 0.2	1.19 ± 0.2
SAGGSAGGSAGGKVEEVEKLAEELEKELGVDIGEVEVLDHPDKFRYRIRIPDLDLDLEFSAGGSAGGSAGGS [r10_161_TrMRF]	-0.529 ± 0.18	-0.0226 ± 0.17	-0.103 ± 0.11
SAGGSAGGSAGGKVKVLSVFELPNNKRLVLIETPSGKKILIVTDSSDPDKVKEKAKEIASAGGSAGGSAGGS [r10_472_TrMRF]	1.54 ± 0.02	1.822 ± 0.017	1.73 ± 0.037
SAGGSAGGSAGGKVLHVPYENIEEKIKEAEEKYPNKEILIHAYLPNGKLLKTIKIKVKKSAGGSAGGSAGGS [r10_741_TrMRF]	1.29 ± 0.026	1.18 ± 0.03	1.23 ± 0.053
SAGGSAGGSAGGKVSEIDLSGDKVVVTVKGPGGSVVREVHPDKTLEQVLDELLENPELVDSAGGSAGGSAGG [r7_373_TrMRF]	-0.176 ± 0.1	1.55 ± 0.05	1.13 ± 0.057
SAGGSAGGSAGGKWHLITFTITMEMYVMKFDPENGKWKPVDPIPMEIQITFLIPPGDPISAGGSAGGSAGGS [r10_610_TrROS]	3.77 ± 0.25	5.08 ± 0.2	4.65 ± 0.47
SAGGSAGGSAGGKWIMVDSPEDIKEFAEDQGYKIKVDNVHPFPGDKNHYMVWIEIEPPGSAGGSAGGSAGGS [r10_126_TrROS]	1.19 ± 0.12	1.13 ± 0.18	1.18 ± 0.14
